Data as given in patent publication US20240207421A1, “NERVE TARGETING PEPTIDES AND METHODS OF USE” (ALUME BIOSCIENCES, INC., priority 2020, published 2024).

Tests used:
[1] = target: T1, Human Myelin Basic Protein (Homo sapiens, UniProt P02686); assay: Phage display library screening (Example 2, Python script analysis), binding to Human Myelin Basic Protein; design: Enzo 200-606-M001 from human; purchased Enzo 200-606-M001; host or cells: human brain (tissue-derived); conditions: R3 Myelin Basic Protein; combined unique sequence count, Python/R script analysis
Procedure, shortened: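 Target protein-coated wells were panned with M13 phage libraries displaying 7- or 12-mer random or cyclic CX7C peptides on pIII, over up to 4 rounds (up to 24 h, 4° C), with glycine pH 2.0 elution. Pools from rounds 2–4 were NextGen-sequenced. Peptides specific to each target were ranked by unique sequence count.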

[2] = target: T1, Human Myelin Basic Protein; assay: Phage display library screening (Example 1, Power BI analysis), binding to Human Myelin Basic Protein; design: Enzo 200-606-M001 from human; purchased Enzo 200-606-M001; host or cells: human brain (tissue-derived); conditions: R3 Myelin Basic Protein, NextGen sequencing count of phage sequences distinct for this target
From the text: (§1) Phage display library screens were used to identify peptides that bind to target proteins that are expressed in human nerves and could therefore be useful for systemic in-vivo labeling of nerves during fluorescence assisted surgery. Specifically, m13 phage libraries expressing 7 or 12 random amino acid peptides, or a cyclic peptide CX7C, on the N-terminus of the minor coat protein pIII (New England Biolabs) were processed through multiple rounds of selection for binding to target proteins expressed in peripheral nerve (Table 1).
(§2) The library was processed through up to 4 binding and wash cycles. For selection, phage libraries were incubated for up to 24 hours at 4° C. in 96 well plates that had been coated with one of the target proteins. Plates were then washed with PBS and phage were eluted using 0.2M glycine pH 2.0. Phage supernatants where then neutralized with Tris pH 9.0 prior to plating on TG1 bacteria and LB agar plates. Colonies were counted to determine titer followed by DNA preparation of pools of phage and NextGen sequencing. After rounds of selection, phage were pooled and amplified for iterative selection. Phage that were bound at each round were sequenced. NextGen sequencing of pools after 2, 3 and 4 rounds of selection was used to isolate candidate sequences that were analyzed further to identify those that specifically bound each unique target protein.
(§3) DNA sequences were trimmed of all vector amino acids and imported as a peptide dataset into Power BI. Power BI was used to identify phage display sequences for specific columns (corresponding to each target protein) in order to identify sequences that were distinct for each protein target. The Power BI code evaluated each individual sequence for each protein target against the sequences present in other protein targets in a test for uniqueness. Using the distinct flag, the Power BI code generated a filtered peptide dataset that excluded any peptide sequence that occur in more than one column which identified a specific protein target. This method therefore identified candidate peptide sequences showing selective binding to an individual target protein. Unique sequences in each column were sorted by individual counts such that the most selected sequences appeared at the top of the column.

Human Myelin PLP [3] = assay: Phage display library screening (Example 2, Python script analysis), binding to Human Myelin PLP; conditions: combined unique sequence count, Python/R script analysis
Protocol: (§4) Phage display library screens were used to identify peptides that bind to target proteins (including specific laminin trimers) that are expressed in human nerves, as described in Table 3. These screens were also carried out to identify peptides that could bind selectively to nerves versus muscle. Such peptides could therefore be useful for systemic in-vivo labeling of nerves during fluorescence assisted surgery. Specifically, m 13 phage libraries expressing 7 or 12 random amino acid peptides, or a cyclic peptide CX7C, on the N-terminus of the minor coat protein pIII (New England Biolabs; NEB) were processed through multiple rounds of selection for binding to target proteins expressed in nerves, or to excised human nerves, nerve extracts, or muscle, as described further below.
as §2, with “For screening against the specified target proteins in Table 1, including LN211, LN411, LN421, and LN521, the phage” for “The”, “by” for “through”, “TGI” for “TG1”
(§5) Python Script Analysis: For all NEB sequence datasets, a python script was used to translate, trim, and filter the peptide sequences. The script translated the nucleotide sequences, translating amber codons as glutamine in peptide sequences, and then trimmed the end sequences that come from the vector. Secondly, the script combined the unique counts of trimmed peptides with identical sequences. […] Another python script was used to group peptides from different assays according to protein target (Myelin Protein Zero, Myelin Proteolipid Protein, Myelin Basic Protein, and Nidogen-2) and also combine the unique sequence counts for each peptide. An R script was written to merge the peptide sequences from different data files and determine peptides specific for each protein target but absent from different protein binding datasets. Peptide sequences were ranked by unique sequence count.

Human Myelin PLP [4] = assay: Phage display library screening (Example 1, Power BI analysis), binding to Human Myelin PLP; conditions: R3 Myelin PLP, NextGen sequencing count of phage sequences distinct for this target
From the text: as §1, §2, §3

Human MPZ [5] = target: T2, Human MPZ (Homo sapiens, UniProt P25189); assay: Phage display library screening (Example 1, Power BI analysis), binding to Human MPZ; conditions: R3 Human MPZ, NextGen sequencing count of phage sequences distinct for this target
T2 construct: purchased Novoprotein (lysate); Bon Opus Biosciences (recombinant protein) NBL1 1321 (lysate); no catalogue number printed for the Bon Opus protein
T2 sequence (P25189 30-248): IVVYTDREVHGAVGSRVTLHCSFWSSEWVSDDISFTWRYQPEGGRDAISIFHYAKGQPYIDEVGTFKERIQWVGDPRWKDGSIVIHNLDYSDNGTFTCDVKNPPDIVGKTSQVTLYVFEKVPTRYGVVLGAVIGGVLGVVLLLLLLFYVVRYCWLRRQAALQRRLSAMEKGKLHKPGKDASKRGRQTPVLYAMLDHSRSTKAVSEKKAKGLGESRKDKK
From the text: as §1, §2, §3

Human MPZ [6] = assay: Phage display library screening (Example 2, Python script analysis), binding to Human MPZ; conditions: combined unique sequence count, Python/R script analysis
Protocol: as §4
as §2, with “For screening against the specified target proteins in Table 1, including LN211, LN411, LN421, and LN521, the phage” for “The”, “by” for “through”, “TGI” for “TG1”
as §5

T1 sequence (P02686 134-304): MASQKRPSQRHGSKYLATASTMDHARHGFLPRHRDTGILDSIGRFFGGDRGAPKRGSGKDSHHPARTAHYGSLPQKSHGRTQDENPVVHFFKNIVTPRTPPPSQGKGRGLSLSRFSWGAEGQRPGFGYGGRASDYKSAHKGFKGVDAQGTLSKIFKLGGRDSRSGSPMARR

Substance: HRLPWHH (R3 Myelin Basic Protein-binding peptide)
- Count [1]: 10
- Count [2]: 10

Substance: TNPWKPH (R3 Myelin PLP-binding peptide)
- Count (Human Myelin PLP [3]): 62
- Count (Human Myelin PLP [4]): 62

Substance: DTSRTME (R3 Myelin PLP-binding peptide)
- Count (Human Myelin PLP [3]): 33
- Count (Human Myelin PLP [4]): 33

Substance: FKMPIPT (R3 Myelin PLP-binding peptide)
- Count (Human Myelin PLP [3]): 34
- Count (Human Myelin PLP [4]): 34

Substance: ALPLSAS (R3 Human MPZ-binding peptide)
- Count (Human MPZ [5]): 196
- Count (Human MPZ [6]): 197

Substance: DRNSVFW (R3 Human MPZ-binding peptide)
- Count (Human MPZ [5]): 50
- Count (Human MPZ [6]): 50

Substance: ILLPSLN (R3 Myelin Basic Protein-binding peptide)
- Count [2]: 13

Substance: DPWVMLR (R3 Myelin Basic Protein-binding peptide)
- Count [1]: 11
- Count [2]: 11

Substance: WPSISRP (R3 Human MPZ-binding peptide)
- Count (Human MPZ [5]): 57
- Count (Human MPZ [6]): 58

Substance: AWSTSSV (R3 Myelin Basic Protein-binding peptide)
- Count [1]: 12
- Count [2]: 12

Substance: GPLRMAT (R3 Human MPZ-binding peptide)
- Count (Human MPZ [5]): 50
- Count (Human MPZ [6]): 51

Substance: YTPMGTG (R3 Myelin PLP-binding peptide)
- Count (Human Myelin PLP [3]): 50
- Count (Human Myelin PLP [4]): 50

Substance: ATLKPYR (R3 Myelin PLP-binding peptide)
- Count (Human Myelin PLP [3]): 68
- Count (Human Myelin PLP [4]): 68

Substance: LSSPLSL (R3 Human MPZ-binding peptide)
- Count (Human MPZ [5]): 56
- Count (Human MPZ [6]): 56

Substance: ETTRNYG (R3 Human MPZ-binding peptide)
- Count (Human MPZ [5]): 68
- Count (Human MPZ [6]): 69

Substance: QIGVLPS (R3 Myelin Basic Protein-binding peptide)
- Count [2]: 11

Substance: RFELPAP (R3 Myelin PLP-binding peptide)
- Count (Human Myelin PLP [3]): 52
- Count (Human Myelin PLP [4]): 52

Substance: VLKNNPT (R3 Human MPZ-binding peptide)
- Count (Human MPZ [5]): 86
- Count (Human MPZ [6]): 87

Substance: RVPHSRT (R3 Human MPZ-binding peptide)
- Count (Human MPZ [5]): 49

Substance: VLTKPMP (R3 Human MPZ-binding peptide)
- Count (Human MPZ [5]): 56
- Count (Human MPZ [6]): 56

Substance: AITSRNA (R3 Myelin Basic Protein-binding peptide)
- Count [2]: 15

Substance: TMASPAK (R3 Human MPZ-binding peptide)
- Count (Human MPZ [5]): 52
- Count (Human MPZ [6]): 58

Substance: SVLRMLN (R3 Myelin Basic Protein-binding peptide)
- Count [2]: 16

Substance: GLIRHYT (R3 Myelin PLP-binding peptide)
- Count (Human Myelin PLP [3]): 66
- Count (Human Myelin PLP [4]): 66

Substance: IKPPYTH (R3 Human MPZ-binding peptide)
- Count (Human MPZ [5]): 78
- Count (Human MPZ [6]): 82

Substance: SPDRTSL (R3 Myelin Basic Protein-binding peptide)
- Count [1]: 12
- Count [2]: 12

Substance: DGKNTSN (R3 Myelin Basic Protein-binding peptide)
- Count [2]: 10

Substance: EHGYYKV (R3 Myelin Basic Protein-binding peptide)
- Count [1]: 17
- Count [2]: 16

Substance: HPSTWHK (R3 Myelin Basic Protein-binding peptide)
- Count [2]: 18

Substance: SAHAKHH (R3 Human MPZ-binding peptide)
- Count (Human MPZ [5]): 51
- Count (Human MPZ [6]): 52

Substance: LALYARM (R3 Myelin PLP-binding peptide)
- Count (Human Myelin PLP [3]): 44
- Count (Human Myelin PLP [4]): 44

Substance: TESLFPH (R3 Human MPZ-binding peptide)
- Count (Human MPZ [5]): 50
- Count (Human MPZ [6]): 52

Substance: GLTPKLF (R3 Human MPZ-binding peptide)
- Count (Human MPZ [5]): 48

Substance: RHNVEFS (R3 Myelin PLP-binding peptide)
- Count (Human Myelin PLP [3]): 42
- Count (Human Myelin PLP [4]): 42

Substance: MTPHTSC (R3 Myelin PLP-binding peptide)
- Count (Human Myelin PLP [4]): 62

Substance: MQTQGRV (R3 Myelin Basic Protein-binding peptide)
- Count [2]: 12

Substance: YPKLWTY (R3 Myelin PLP-binding peptide)
- Count (Human Myelin PLP [3]): 35
- Count (Human Myelin PLP [4]): 35

Substance: AGQLMRCANC (R3 Myelin Basic Protein-binding peptide)
- Count [2]: 12

Substance: DPITRLK (R3 Human MPZ-binding peptide)
- Count (Human MPZ [5]): 92
- Count (Human MPZ [6]): 93

Substance: WTMKPNY (R3 Myelin Basic Protein-binding peptide)
- Count [1]: 14
- Count [2]: 13

Substance: GPFLFTV (R3 Myelin PLP-binding peptide)
- Count (Human Myelin PLP [4]): 47

Substance: NDTKTPS (R3 Myelin Basic Protein-binding peptide)
- Count [2]: 19

Substance: NPSHHPR (R3 Myelin PLP-binding peptide)
- Count (Human Myelin PLP [3]): 37
- Count (Human Myelin PLP [4]): 37

Substance: LTHHFAP (R3 Myelin PLP-binding peptide)
- Count (Human Myelin PLP [3]): 40
- Count (Human Myelin PLP [4]): 40

Substance: NPNWRTI (R3 Myelin PLP-binding peptide)
- Count (Human Myelin PLP [3]): 34
- Count (Human Myelin PLP [4]): 34

Substance: KMAGHTV (R3 Human MPZ-binding peptide)
- Count (Human MPZ [5]): 51
- Count (Human MPZ [6]): 54

Substance: GDERIVRTLSHN (R3 Human MPZ-binding peptide)
- Count (Human MPZ [5]): 47

Substance: FPVVTRN (R3 Myelin PLP-binding peptide)
- Count (Human Myelin PLP [4]): 42

Substance: LPMRILT (R3 Myelin Basic Protein-binding peptide)
- Count [1]: 16
- Count [2]: 16

Substance: TSPWELR (R3 Human MPZ-binding peptide)
- Count (Human MPZ [5]): 107
- Count (Human MPZ [6]): 108

Substance: AGFPPNT (R3 Myelin Basic Protein-binding peptide)
- Count [2]: 10

Substance: SHLASRP (R3 Human MPZ-binding peptide)
- Count (Human MPZ [5]): 97

Substance: LRPISHE (R3 Myelin Basic Protein-binding peptide)
- Count [2]: 12

Substance: QNTGLKW (R3 Myelin Basic Protein-binding peptide)
- Count [1]: 11
- Count [2]: 11

Substance: SHSPGNK (R3 Human MPZ-binding peptide)
- Count (Human MPZ [5]): 67
- Count (Human MPZ [6]): 79

Substance: SKSDAWR (R3 Myelin Basic Protein-binding peptide)
- Count [2]: 14
